What is called stoichiometry N is a count of units in the complex or per binding partner.

Several values for one entry are separate records, joined by “and”; a condition that tells them apart may be missing. Equal entries are not always repeated.

In PMC6624373 one finds stoichiometry N, percent of un-tagged lamin A retained on the beads and dimers seen per head-to-tail tetramer (EM) (dimers per tetramer) data, which are given here for one molecule.

Common to all, as to conditions: remark: other sources report otherwise
The target of assay [1] is T1, lamin A (human, mature form, without tags, wild type) (human), P02545.
T1 chain: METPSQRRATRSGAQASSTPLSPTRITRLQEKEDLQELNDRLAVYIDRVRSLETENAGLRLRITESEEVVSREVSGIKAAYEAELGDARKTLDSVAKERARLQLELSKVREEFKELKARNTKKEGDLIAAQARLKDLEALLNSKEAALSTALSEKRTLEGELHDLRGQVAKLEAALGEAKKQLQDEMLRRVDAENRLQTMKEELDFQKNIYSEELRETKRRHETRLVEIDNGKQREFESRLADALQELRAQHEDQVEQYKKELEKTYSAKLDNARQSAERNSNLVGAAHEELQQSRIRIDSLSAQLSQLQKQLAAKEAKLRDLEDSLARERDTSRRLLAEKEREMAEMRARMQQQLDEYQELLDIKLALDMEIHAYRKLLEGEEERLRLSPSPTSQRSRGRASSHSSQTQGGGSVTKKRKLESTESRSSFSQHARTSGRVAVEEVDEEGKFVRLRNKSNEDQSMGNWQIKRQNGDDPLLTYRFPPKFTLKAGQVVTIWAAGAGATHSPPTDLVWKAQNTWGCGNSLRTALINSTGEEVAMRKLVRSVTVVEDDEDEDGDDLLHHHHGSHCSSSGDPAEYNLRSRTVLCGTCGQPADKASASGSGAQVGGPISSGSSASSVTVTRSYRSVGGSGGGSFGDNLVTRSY
The assay is described as follows: AUC; sedimentation velocity, 0.3 mg/mL lamin A in Tris or NaPi buffer, 45,000 rpm, 20 °C, interference optics, c(s) model.

Assay [2] deals with T2, 6xHis-tagged lamin A (human, mature form) (human), P02545.
T2 chain: T1 chain
Briefly: pull-down; Ni-NTA pull-down of a 1:1 mix of un-tagged and 6xHis-tagged lamin A monomers after gel-extraction and refolding.

Assay [3] deals with T1, lamin A (human, mature form, without …). Briefly: cross-linking; 0.4 mg/mL lamin A in NaPi buffer, EDC:S-NHS (1:4:8.8 by weight lamin A:EDC:S-NHS), 30 min, room temperature; product bands resolved by SDS-PAGE, gel-extracted and seen by rotary metal shadowing EM.
Assay [4] has the same target. The assay is described as follows: AUC; sedimentation velocity, 0.3 mg/mL lamin A in Tris or NaPi buffer, 45,000 rpm, 20 °C, interference optics, c(s) model.
Assay [5] has the same target. Briefly: rotary metal shadowing EM; un-cross-linked lamin A at 0.1 mg/mL in Tris buffer (25 mM Tris, 250 mM NaCl, pH 8.0) or NaPi buffer (100 mM NaPi, 250 mM NaCl, pH 8.0), 30% glycerol, sprayed on mica; dimers and head-to-tail tetramers.

B1: lamin A (human, mature form, without tags, wild type), P02545 1-646 (natural protein)
chain: T1 chain
In the case of B1, the stoichiometry N is 2 in assay [1]; 2 and 4 in assay [3]; 4 in assay [4]; 2 and 4 in assay [5]. This molecule had a percent of un-tagged lamin A retained on the beads in assay [2] of 50%. Further, the dimers seen per head-to-tail tetramer (EM) (dimers per tetramer) in assay [5] is 20 to 25.
